Measured values from patent US20250051463A1 (AstraZeneca / MedImmune, published 2025).

Columns and labels:
GM-CSFRα = target: T1, GM-CSFRα (Homo sapiens (Human), UniProt P15509 23-320); experiment: biolayer interferometry, HT12-GL on the sensor, GM-CSFRa-His in solution
T1 construct: also called GM-CSFRa; GM-CSFRa sample; not shown: His tag
T1 sequence: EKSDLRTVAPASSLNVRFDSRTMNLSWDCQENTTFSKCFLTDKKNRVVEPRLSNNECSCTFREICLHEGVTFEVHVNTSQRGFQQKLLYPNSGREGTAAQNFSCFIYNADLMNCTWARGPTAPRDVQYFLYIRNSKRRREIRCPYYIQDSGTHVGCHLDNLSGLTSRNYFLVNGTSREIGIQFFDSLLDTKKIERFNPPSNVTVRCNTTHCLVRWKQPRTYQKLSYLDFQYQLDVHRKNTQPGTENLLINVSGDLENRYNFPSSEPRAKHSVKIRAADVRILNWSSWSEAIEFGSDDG
Experimental: (§1) Biolayer interferometry binding experiments were performed using an Octet RED384 instrument, with all measurements made at 30° C. AHC biosensor probes were soaked in kinetics buffer (PBS pH 7.2+0.02% Tween-20, 0.1% BSA, 0.05% sodium azide) for 10 minutes, followed by baseline signal measurement in kinetics buffer for 60 seconds. […] For binding to hIL3-Rα, the antibody-loaded biosensor tips were dipped in binding buffer for 60 sec (baseline), followed by immersion in a solution containing dilutions of hIL3-Rα (10-0.16 μg/mL) for 300 sec (association), and subsequent immersion in kinetics buffer for 400 sec (dissociation). For binding to hIL5-Rα and GM-CSFRa, all steps were the same except the concentration of antigen was increased (50-1.56 μg/mL) and the dissociation step was decreased to 300 sec. The signal from a buffer only reference sample was subtracted, and all curves were fit with a 1:1 binding model to determine KD values.

[1] = target: T2, human IL3Rα (CD123), sample in solution for biolayer interferometry (human, UniProt P26951 19-305, limits assumed); experiment: biolayer interferometry (Octet RED384), antibody on AHC sensor, hIL3-Rα 10-0.16 µg/mL in solution, 1:1 fit
T2 construct: Soluble analyte in the Octet assay; also called hIL3-Rα; hIL3Rα
T2 sequence (looked up): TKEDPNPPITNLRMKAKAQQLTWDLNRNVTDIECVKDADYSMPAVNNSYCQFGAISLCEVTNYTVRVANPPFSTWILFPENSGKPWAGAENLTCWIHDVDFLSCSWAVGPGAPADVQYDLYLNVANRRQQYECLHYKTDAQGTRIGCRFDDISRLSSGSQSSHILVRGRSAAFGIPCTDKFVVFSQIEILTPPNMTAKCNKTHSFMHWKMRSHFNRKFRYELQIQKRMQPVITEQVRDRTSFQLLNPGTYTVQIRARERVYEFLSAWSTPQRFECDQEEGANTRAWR
Experimental: as §1

[2] = target: T3, mouse IL3Rα expressed on 293 cells (mouse, UniProt P26952 17-396); experiment: flow cytometry with Alexa 647 labelled antibody on Ad293 cells expressing mouse IL3Ra, geometric mean
T3 construct: whole, on cells; also called mouse CD123
T3 sequence (looked up): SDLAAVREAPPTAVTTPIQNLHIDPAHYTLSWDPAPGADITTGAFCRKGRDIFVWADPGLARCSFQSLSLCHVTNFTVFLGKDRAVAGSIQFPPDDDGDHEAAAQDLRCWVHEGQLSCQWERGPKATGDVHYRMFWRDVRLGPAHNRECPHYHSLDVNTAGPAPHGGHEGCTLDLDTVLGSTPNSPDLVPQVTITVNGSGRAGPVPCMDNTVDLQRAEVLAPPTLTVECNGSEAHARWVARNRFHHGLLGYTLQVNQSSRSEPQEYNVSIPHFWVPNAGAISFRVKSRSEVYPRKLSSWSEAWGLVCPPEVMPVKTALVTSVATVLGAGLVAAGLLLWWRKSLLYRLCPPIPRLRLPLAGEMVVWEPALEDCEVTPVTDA
Experimental: AD293 cells were maintained in DMEM (Dulbecco's Modified Eagle Medium) containing 10% heat-inactivated fetal bovine serum (FBS) and were cultured in a humidified atmosphere of 5% CO2 and at a temperature of 37° C. On the day of plating, cells were spun down at 1500 rpm for 3 minutes, counted, and resuspended to a final concentration of 0.3×10⁶ cells/ml. Two hundred μl of cells were plated to wells of 96 well microtiter plate. Plates were spun down at 1500 rpm for 3 minutes and flicked to remove media. One hundred μl of FACs buffer (PBS [Phosphate Buffer Saline]+2% FBS) was added to the wells. Plates were then spun again as above followed by addition of primary antibody in 100 μl of FACS buffer. […] Antibody concentration started at 12 μg/ml followed by six 1:3 dilutions (no antibody control was also run). Plates were incubated at 4° C. for 30 minutes. Following incubation plates were washed 3 times by spinning down at 1500 rpm for 3 minutes, flicked and 100 μl of FACS buffer were added. Following a final wash, 100 μl of FACS buffer containing live/dead DAPI (diamidino-2-phenylindole) stain was added to the plates. […] Flow data was analyzed in FlowJo software.

binding result (GM-CSFRα): no binding
Kd [1]: 0.31 nM
B1: HT12-GL antibody (antibody, human IgG1, kappa, V domains shown)
VH: EVQLLESGGGLVQPGGSLRLSCAASGFTFNIYAMTWVRQAPGKGLEWVSGISAGGDSTYYADSVKGRFTISRDNSKNTLYLQMNSLRAEDTAVYYCAKDRGYYYGMDVWGQGTTVTVSS
VL: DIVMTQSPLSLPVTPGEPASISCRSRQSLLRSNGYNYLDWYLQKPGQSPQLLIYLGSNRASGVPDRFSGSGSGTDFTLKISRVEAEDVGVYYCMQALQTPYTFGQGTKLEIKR
notes: elsewhere unlabeled with a secondary antibody; also called HT12-GL mAb; CD123 mAb
binding result [2]: no binding (tested: log 1.1 ug/ml (about 12 ug/ml))
